The results in this text go back to US20210063414A1, “METHODS FOR PREVENTING AND/OR TREATING BONE LOSS CONDITIONS BY MODULATING IRISIN” (Dana-Farber Cancer Institute, Inc., priority 2018, published 2021).

Holding throughout (assay): Crosslinking/co-immunoprecipitation/mass spectrometry (TMT quantitative proteomics) to identify irisin receptors
Common to all, as to assay type: binding

Test [1] addresses T1, MLO-Y4 cell surface proteins (Mus musculus, UniProt O70404).
T1 construct: endogenous in cells; host or cells: MLO-Y4
T1 sequence (O70404 1-101): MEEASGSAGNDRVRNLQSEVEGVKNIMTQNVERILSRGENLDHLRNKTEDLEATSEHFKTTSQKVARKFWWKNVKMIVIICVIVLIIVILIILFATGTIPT
Particulars: co-precipitated protein Vamp8 (VAMP8_MOUSE). The gist of the method: (§1)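 Mouse MLO-Y4 cells were switched to serum-free FreeStyle medium for 4 h, chilled, then exposed to 10 nM His-tagged irisin (or adipsin as control) for 20 min. Cells were crosslinked with 1.5 mM DTSSP (30 min, ice), and bound proteins were pulled down on Ni-NTA and eluted with 250 mM imidazole. Eluates were separated by SDS-PAGE, trypsin-digested in gel, TMT 6-plex labelled and quantified by MS3-based LC-MS/MS on an Orbitrap Fusion Lumos.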

Test [2] addresses T2, MLO-Y4 cell surface proteins (Mus musculus, UniProt P04117).
T2 construct: endogenous in cells; host or cells: MLO-Y4
T2 sequence (P04117 1-132): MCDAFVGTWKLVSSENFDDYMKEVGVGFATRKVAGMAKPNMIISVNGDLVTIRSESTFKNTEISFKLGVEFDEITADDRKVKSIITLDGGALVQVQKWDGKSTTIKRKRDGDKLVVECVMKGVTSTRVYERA
Particulars: co-precipitated protein Fabp4 (FABP4_MOUSE). The gist of the method:
as §1

For test [3], the target named is T3, MLO-Y4 cell surface proteins (Mus musculus, UniProt P48997).
T3 construct: endogenous in cells; host or cells: MLO-Y4
T3 sequence (P48997 1-467): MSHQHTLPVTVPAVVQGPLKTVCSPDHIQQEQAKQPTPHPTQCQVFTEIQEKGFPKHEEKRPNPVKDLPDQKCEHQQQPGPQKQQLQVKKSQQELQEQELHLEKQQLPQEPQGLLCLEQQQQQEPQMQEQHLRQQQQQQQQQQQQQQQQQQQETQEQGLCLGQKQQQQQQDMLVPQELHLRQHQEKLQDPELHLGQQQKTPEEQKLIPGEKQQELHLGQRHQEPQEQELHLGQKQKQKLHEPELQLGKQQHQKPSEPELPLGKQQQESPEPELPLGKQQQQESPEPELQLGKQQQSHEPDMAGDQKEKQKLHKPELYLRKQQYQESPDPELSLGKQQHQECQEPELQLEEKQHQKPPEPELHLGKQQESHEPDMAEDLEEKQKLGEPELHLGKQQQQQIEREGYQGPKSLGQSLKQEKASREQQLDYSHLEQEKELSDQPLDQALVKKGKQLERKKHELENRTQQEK
Particulars: co-precipitated protein Ivl (INVO_MOUSE). The gist of the method: as §1

Test [4] concerns the target T4, MLO-Y4 cell surface proteins (Mus musculus, UniProt P61161).
T4 construct: endogenous in cells; host or cells: MLO-Y4
The settings on record: co-precipitated protein Actr2 (ARP2_MOUSE). Put shortly:
as §1

Test [5] deals with T5, MLO-Y4 cell surface proteins (Mus musculus, UniProt Q3U1J4).
T5 construct: endogenous in cells; host or cells: MLO-Y4
T5 sequence (Q3U1J4 whole entry): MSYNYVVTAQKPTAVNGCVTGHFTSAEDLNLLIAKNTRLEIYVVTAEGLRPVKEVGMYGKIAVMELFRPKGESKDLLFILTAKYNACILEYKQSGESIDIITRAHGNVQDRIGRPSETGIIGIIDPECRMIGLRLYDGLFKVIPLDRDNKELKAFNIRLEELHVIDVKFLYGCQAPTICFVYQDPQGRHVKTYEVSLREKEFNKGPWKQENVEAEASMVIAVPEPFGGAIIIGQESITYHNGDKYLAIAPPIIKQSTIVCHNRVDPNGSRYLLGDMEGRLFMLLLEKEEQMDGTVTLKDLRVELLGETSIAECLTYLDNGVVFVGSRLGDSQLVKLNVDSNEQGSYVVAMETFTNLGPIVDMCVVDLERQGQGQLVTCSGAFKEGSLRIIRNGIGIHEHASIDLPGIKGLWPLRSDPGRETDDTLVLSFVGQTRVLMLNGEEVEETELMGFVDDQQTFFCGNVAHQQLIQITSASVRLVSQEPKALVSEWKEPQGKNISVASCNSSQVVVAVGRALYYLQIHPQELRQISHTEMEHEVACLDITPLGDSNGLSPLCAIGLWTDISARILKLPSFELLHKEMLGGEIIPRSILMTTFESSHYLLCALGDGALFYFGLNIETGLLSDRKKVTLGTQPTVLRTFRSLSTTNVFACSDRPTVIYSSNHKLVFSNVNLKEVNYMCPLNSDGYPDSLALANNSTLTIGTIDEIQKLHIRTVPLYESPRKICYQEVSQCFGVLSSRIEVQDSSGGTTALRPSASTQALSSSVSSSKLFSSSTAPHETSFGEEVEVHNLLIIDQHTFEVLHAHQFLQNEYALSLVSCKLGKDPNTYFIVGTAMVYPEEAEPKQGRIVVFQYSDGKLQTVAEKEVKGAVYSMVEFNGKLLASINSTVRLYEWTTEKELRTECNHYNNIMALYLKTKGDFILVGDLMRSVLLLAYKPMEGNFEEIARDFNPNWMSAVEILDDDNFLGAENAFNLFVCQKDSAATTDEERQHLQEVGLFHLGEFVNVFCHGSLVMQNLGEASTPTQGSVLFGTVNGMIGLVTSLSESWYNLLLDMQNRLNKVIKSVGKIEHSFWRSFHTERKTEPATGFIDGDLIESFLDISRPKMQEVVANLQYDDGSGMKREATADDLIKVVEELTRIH
Particulars: co-precipitated protein Ddb1 (DDB1_MOUSE). Put shortly: as §1

The target in test [6] is T6, MLO-Y4 cell surface proteins (Mus musculus, UniProt Q62028).
T6 construct: endogenous in cells; host or cells: MLO-Y4
T6 sequence (Q62028 27-1487): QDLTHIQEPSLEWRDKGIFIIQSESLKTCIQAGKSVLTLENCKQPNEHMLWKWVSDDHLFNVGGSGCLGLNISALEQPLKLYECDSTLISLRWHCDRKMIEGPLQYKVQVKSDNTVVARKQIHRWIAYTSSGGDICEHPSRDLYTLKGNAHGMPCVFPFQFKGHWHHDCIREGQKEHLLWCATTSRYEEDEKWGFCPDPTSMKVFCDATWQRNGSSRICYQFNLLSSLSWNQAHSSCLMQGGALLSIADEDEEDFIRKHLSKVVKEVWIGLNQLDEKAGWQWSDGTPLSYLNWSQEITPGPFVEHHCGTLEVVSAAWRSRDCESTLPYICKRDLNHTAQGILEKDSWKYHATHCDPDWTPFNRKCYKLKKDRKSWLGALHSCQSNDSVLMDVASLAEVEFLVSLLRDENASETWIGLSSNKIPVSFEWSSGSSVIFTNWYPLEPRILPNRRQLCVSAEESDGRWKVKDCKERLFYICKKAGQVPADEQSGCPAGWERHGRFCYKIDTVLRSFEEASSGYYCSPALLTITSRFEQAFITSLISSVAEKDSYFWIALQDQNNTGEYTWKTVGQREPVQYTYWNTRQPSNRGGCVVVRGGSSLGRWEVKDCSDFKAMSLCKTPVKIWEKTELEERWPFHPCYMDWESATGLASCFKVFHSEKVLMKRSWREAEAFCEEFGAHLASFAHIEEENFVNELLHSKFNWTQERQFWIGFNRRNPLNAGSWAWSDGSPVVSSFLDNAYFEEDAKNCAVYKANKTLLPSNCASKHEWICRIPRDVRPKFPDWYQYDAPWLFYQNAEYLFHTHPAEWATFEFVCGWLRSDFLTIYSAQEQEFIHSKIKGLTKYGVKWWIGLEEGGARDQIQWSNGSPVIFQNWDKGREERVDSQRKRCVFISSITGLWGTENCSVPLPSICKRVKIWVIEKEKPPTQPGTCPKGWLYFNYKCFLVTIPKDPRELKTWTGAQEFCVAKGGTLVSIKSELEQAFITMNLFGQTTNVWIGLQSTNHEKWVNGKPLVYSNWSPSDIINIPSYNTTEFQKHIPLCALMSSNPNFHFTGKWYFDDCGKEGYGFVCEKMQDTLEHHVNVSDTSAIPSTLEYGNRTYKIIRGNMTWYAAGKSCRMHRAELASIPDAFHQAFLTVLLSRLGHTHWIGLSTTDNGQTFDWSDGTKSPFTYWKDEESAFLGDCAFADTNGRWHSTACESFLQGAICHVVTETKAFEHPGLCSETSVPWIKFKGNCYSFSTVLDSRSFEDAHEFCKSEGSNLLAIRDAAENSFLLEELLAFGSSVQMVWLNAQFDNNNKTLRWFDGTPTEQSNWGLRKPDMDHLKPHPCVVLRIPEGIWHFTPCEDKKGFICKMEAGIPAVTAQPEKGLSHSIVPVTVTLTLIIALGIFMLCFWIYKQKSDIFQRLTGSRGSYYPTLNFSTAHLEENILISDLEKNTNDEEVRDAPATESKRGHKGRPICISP
Particulars: co-precipitated protein Pla2r1 (PLA2R_MOUSE). Put shortly: as §1

B1: irisin: secreted cleaved form of FNDC5; recombinant human/mouse irisin with C-terminal his tag produced in HEK293 cells (protein)
chain: DSPSAPVNVTVRHLKANSAVVSWDVLEDEVVIGFAISQQKKDVRMLRFIQEVNTTTRSCALWDLEEDTEYIVHVQAISIQGQSPASEPVLFKTPREAEKMASKNKDEVTMKE
modifications: left off: small tags and cut ends
notes: secreted cleaved form of FNDC5; recombinant human/mouse irisin with C-terminal his tag produced in HEK293 cells
On to B1, for which the TMT signal-to-noise ratio in test [1] is on record as 169.775; in test [2], 40.1352; in test [3], 13.3857; in test [4], 84.7644; in test [5], 149.943; in test [6], 142.778. The “irisin/adipsin TMT signal-to-noise ratio” value in test [1] amounted to 0.566; in test [2] it was 0.054; in test [3], 0.060; in test [4] it was 0.552; in test [5] it was 0.352; in test [6], 0.275.
